Reference: US20020147129A1

What was measured:
[1] = biological target: embryonic chicken AT4 receptor (chicken); experiment: competition for [125I]Ang IV binding, E13 chicken chorioallantoic membranes
[2] = biological target: embryonic chicken Ang II receptor (chicken); experiment: competition for 125I[Sar1Ile8]Ang II binding, E13 chicken chorioallantoic membranes
[3] = biological target: angiotensin AT4 receptor of Macaca fascicularis brain (Macaca fascicularis); experiment: competition for [125I]Ang IV binding, monkey prefrontal cortical sections
[4] = biological target: AT4 receptor of sheep central nervous system (sheep); experiment: competition for [125I]Ang IV binding, sheep cerebellar cortical membranes
[5] = biological target: AT4 receptor of sheep central nervous system (sheep); experiment: competition for 125I-LVV-haemorphin-7 binding, sheep cerebellar cortical membranes

Chain of embryonic chicken Ang II receptor (chicken) (P79785 whole entry): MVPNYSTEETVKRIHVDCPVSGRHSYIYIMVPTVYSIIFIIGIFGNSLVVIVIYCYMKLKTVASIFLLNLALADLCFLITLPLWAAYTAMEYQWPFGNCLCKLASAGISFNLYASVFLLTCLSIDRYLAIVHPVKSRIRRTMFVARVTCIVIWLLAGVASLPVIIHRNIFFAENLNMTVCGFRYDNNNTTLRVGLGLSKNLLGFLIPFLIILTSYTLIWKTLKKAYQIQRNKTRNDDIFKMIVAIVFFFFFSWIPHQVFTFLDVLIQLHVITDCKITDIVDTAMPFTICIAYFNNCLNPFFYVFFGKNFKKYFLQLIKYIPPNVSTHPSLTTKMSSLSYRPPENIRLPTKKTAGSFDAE

Substance | concentration effective at competing for 50% of the sites [1] [µM] | IC50 [2] [nM] | IC50 [3] [nM] | IC50 [4] [nM] | IC50 [5] [nM]
CGP 42112 (peptide) | 0.5 | 180 |  |  | 
angiotensin III (from UniProt P01019 26-32) (peptide) |  |  | 80 | 6.9 | 77
angiotensin II (from UniProt P01019 25-32) (peptide) |  | 100 | 730 | 2000 | 1600
